{"source": "paper PMC4635569", "key": {"[1]": {"biological_target": "plasma-derived human complement factor H (human) (UniProt P08603)"}, "[2]": {"biological_target": "human C3b (human) (UniProt P01024)", "sequence (P01024 23-667, chain 1 of 2)": "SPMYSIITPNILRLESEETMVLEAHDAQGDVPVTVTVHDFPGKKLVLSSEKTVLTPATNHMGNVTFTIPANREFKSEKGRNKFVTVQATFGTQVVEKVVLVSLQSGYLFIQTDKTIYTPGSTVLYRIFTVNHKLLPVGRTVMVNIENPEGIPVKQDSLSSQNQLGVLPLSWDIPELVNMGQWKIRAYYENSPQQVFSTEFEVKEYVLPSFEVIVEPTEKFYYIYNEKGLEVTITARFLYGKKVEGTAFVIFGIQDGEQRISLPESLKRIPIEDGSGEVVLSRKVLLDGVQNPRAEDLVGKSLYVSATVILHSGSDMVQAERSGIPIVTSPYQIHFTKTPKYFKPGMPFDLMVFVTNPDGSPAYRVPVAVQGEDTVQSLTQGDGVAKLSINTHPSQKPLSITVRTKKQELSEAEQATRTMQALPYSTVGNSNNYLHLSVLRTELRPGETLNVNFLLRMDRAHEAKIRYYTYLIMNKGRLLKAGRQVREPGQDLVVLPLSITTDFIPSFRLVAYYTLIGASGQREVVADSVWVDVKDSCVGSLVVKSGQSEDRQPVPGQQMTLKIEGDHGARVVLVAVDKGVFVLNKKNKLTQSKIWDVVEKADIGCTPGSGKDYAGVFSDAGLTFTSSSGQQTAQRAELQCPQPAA", "sequence (P01024 749-1663, chain 2 of 2)": "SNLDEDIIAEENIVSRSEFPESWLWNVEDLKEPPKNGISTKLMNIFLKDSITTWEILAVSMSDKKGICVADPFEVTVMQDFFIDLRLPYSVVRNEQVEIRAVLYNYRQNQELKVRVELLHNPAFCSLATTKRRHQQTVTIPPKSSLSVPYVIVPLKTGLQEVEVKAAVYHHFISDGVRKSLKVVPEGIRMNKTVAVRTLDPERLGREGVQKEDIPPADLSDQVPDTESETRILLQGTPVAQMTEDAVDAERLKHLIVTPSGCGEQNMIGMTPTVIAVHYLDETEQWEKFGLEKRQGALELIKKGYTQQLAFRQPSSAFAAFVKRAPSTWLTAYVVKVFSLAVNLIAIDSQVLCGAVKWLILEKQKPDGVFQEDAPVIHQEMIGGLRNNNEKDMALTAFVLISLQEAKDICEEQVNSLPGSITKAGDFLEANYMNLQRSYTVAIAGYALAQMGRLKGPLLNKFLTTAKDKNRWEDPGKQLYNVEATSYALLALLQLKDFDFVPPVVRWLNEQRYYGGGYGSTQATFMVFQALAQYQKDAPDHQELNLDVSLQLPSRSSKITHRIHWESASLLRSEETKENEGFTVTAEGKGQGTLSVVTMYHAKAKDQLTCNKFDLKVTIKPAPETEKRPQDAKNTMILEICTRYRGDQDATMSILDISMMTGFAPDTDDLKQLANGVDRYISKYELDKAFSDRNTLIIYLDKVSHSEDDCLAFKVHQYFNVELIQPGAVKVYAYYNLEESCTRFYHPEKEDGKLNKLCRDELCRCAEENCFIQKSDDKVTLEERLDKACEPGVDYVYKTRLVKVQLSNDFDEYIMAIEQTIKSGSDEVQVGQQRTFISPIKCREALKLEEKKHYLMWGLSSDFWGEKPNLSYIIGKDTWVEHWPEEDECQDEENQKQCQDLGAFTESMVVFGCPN", "test": "SPR; C3b (~250 RU) or C3d (~70 RU) amine coupled to adjacent flow cells of a Biacore C1 chip; FH preincubated with or without a 2-fold molar excess of PspCN injected (90 s, 30 μl/min, 400 s dissociation); 1:1 binding model"}, "[3]": {"biological_target": "human C3d (human) (UniProt P01024)", "sequence (P01024 1002-1303)": "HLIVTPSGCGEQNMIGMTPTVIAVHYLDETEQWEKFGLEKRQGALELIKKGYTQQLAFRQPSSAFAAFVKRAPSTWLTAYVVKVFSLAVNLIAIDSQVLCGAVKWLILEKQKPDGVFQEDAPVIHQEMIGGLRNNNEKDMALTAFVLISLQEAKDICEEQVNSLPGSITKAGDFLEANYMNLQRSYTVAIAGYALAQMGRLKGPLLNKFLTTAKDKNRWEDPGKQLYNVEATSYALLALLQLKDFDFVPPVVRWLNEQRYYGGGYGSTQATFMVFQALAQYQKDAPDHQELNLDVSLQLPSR", "test": "SPR; C3b (~250 RU) or C3d (~70 RU) amine coupled to adjacent flow cells of a Biacore C1 chip; FH preincubated with or without a 2-fold molar excess of PspCN injected (90 s, 30 μl/min, 400 s dissociation); 1:1 binding model"}, "[4]": {"biological_target": "human C3b (human) (UniProt P01024)", "test": "SPR; C3b (~250 RU) or C3d (~70 RU) amine coupled to adjacent flow cells of a Biacore C1 chip; FH preincubated with or without a 2-fold molar excess of PspCN injected (90 s, 30 μl/min, 400 s dissociation); 1:1 binding model", "remark": "listed apart in the source"}, "[5]": {"biological_target": "C3d C3d (Homo sapiens) (UniProt P01024)", "sequence (P01024 1002-1303)": "as above", "settings": "cited from earlier work"}, "[6]": {"biological_target": "C3b C3b (Homo sapiens) (UniProt P01024)", "sequence (P01024 566-670)": "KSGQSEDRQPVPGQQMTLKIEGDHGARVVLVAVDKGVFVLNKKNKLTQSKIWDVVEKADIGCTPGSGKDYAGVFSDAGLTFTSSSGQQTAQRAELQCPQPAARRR", "settings": "cited from earlier work"}, "[7]": {"biological_target": "His6-SUMO-tagged D39 PspC residues 37-140 (Streptococcus pneumoniae D39)", "test": "SPR; PspC-derived proteins immobilised via N-terminal His6-SUMO tags on a Ni2+-loaded Biacore NTA chip (~150 RU); FH, rFH or rFH fragments flowed over (180 s, 100 μl/min, 1500 s dissociation); 25°C; 10 mM HEPES, 150 mM NaCl, 0.05% P20, pH 7.4, 50 μM EDTA; 1:1 binding model; equilibrium method for FH 8–9"}, "[8]": {"biological_target": "(D39)PspCN, D39 PspC residues 37-140 after removal of the His6-SUMO tag (Streptococcus pneumoniae D39)", "test": "SEC-MALS; 4.6 μM in PBS of FH, PspCN or a 1:1 complex; Superose12 10/300 GL column, 0.4 ml/min"}}, "note": "Read-outs that look alike come from different tables or passages of the source.", "data": [{"substance": "(D39)PspCN, D39 PspC residues 37-140 after removal of the His6-SUMO tag (domain or fragment)", "values": [{"measurement": "inhibition of acidified-serum lysis of PNH-like (AET-treated) human erythrocytes by increasing concentrations of (D39)PspCN; FH of the serum", "setting": "[1]", "result": 28, "unit": "nM"}]}, {"substance": "(D39)PspCN:FH complex (plasma-derived FH) (from UniProt P08603 19-1231)", "values": [{"measurement": "Kd", "setting": "[2]", "result": 160, "unit": "nM"}, {"measurement": "ratio of KD values for FH versus FH-PspCN", "setting": "[2]", "result": 2.04}, {"measurement": "Kd", "setting": "[3]", "result": 2300, "unit": "nM"}]}, {"substance": "(D39)PspCN:FH(D1119G) complex (from UniProt P08603 19-1231)", "values": [{"measurement": "Kd", "setting": "[2]", "result": 320, "unit": "nM"}, {"measurement": "Kd", "setting": "[4]", "result": 330, "unit": "nM"}]}, {"substance": "(D39)PspCN:rFH complex (from UniProt P08603 19-1231)", "values": [{"measurement": "Kd", "setting": "[2]", "result": 280, "unit": "nM"}, {"measurement": "Kd", "setting": "[3]", "result": 2200, "unit": "nM"}]}, {"substance": "(Tigr4)PspC_(37–179):FH complex (from UniProt P08603 19-1231)", "values": [{"measurement": "Kd", "setting": "[2]", "result": 280, "unit": "nM"}, {"measurement": "Kd", "setting": "[3]", "result": 1200, "unit": "nM"}]}, {"substance": "Complement factor H CCP 19-20 (from UniProt P08603)", "values": [{"measurement": "Kd", "setting": "[5]", "result": 2000, "unit": "nM"}, {"measurement": "Kd", "setting": "[6]", "result": 2000, "unit": "nM"}]}, {"substance": "FH 8–9 (domain or fragment)", "values": [{"measurement": "Kd", "setting": "[7]", "result": 30, "unit": "nM"}]}, {"substance": "FH 8–15 (domain or fragment)", "values": [{"measurement": "Kd", "setting": "[7]", "result": 1, "unit": "nM"}]}, {"substance": "plasma-derived human complement factor H (from UniProt P08603 19-1231) (natural protein)", "values": [{"measurement": "stoichiometry N", "setting": "[8]", "result": "1 FH:PspCN"}, {"measurement": "dissociation over 30 min (off-rate) (% over 30 min)", "setting": "[7]", "result": "< 0.2"}]}]}
